The values that follow come from US20040192609A1.

Experiment [1] addresses gp120 of the HIV-1 isolate ADA (HIV-1). Nature of the experiment: scFv precipitated with Protein L-Sepharose, radiolabeled ADA gp120 with and without soluble CD4, densitometry.
Experiment [2] has as its target envelope glycoprotein of the R5-isolate ADA on pseudotyped HIV-1 (HIV-1). The experiment is described as follows: cell-based or functional assay.

Some results are limits rather than exact numbers.

On to 47e scFv (wt), for which the enhancement of binding to gp120 by soluble CD4 in experiment [1] was more than 2 fold. For the substance antibody 17b, in experiment [2], the EC50 of neutralization of ADA virus was more than 2 µg/mL. Regarding E51 scFv, the increase of binding to gp120 in the presence of CD4 in experiment [1] was 40%. In the case of antibody E51, the EC50 of neutralization of ADA virus in experiment [2] was less than 0.05 µg/mL. In experiment [2], CD4 binding site antibody F105 returned an EC50 of neutralization of ADA virus of 0.2 to 0.5 µg/mL.

For 17b scFv, the enhancement of binding to gp120 by soluble CD4 in experiment [1] was more than 2 fold. Substance antibody 412d returned an EC50 of neutralization of ADA virus in experiment [2] of 0.2 to 0.5 µg/mL. 412d scFv (wt): the enhancement of binding to gp120 by soluble CD4 in experiment [1] is more than 2 fold.
